# Like-named read-outs stand apart in the source and are kept apart here.
# B1: Zven1 (E. coli produced) (ligand)
# chain: AVITGACDKDSQCGGGMCCAVSIWVKSIRICTPMGKLGDSCHPLTRKVPFFGRRMHHTCPCLPGLACLRTSFNRFICLAQK
# B2: Zven1 protein produced in baculovirus with a C-terminal Glu-Glu tag (ligand)
# chain: AVITGACDKDSQCGGGMCCAVSIWVKSIRICTPMGKLGDSCHPLTRKVPFFGRRMHHTCPCLPGLACLRTSFNRFICLAQKGLEYMPMD
# B3: Heated Zven1 (Baculovirus-expressed Zven1 heated at 56° C. for 30 minutes) (ligand)
# chain: B2 chain
# B4: Zven2 ("endocrine-gland-derived vascular endothelial growth factor") protein purchased from Peprotech, Inc. (ligand)
# chain: AVITGACERDVQCGAGTCCAISLWLRGLRMCTPLGREGEECHPGSHKVPFFRKRKHHTCPCLPNLLCSRFPDGRYRCSMDLKNINF
# Key:
# GPCR73b receptor [1] = biological target: T1, GPCR73b receptor (Homo sapiens (Human), UniProt Q8NFJ6 1-384); test: cell-based or functional assay
# GPCR73a receptor [2] = biological target: T2, GPCR73a receptor (Homo sapiens (Human), UniProt Q8TCW9 1-393); test: cell-based or functional assay
# GPCR73a receptor [3] = biological target: T2, GPCR73a receptor; test: cell-based or functional assay; remark: listed apart in the source
# GPCR73b receptor [4] = biological target: T1, GPCR73b receptor; test: cell-based or functional assay; remark: listed apart in the source
# [5] = biological target: Zven1 receptor on Wky12-22 cells (rat); test: saturation binding of I125-radiolabeled Zven1 to Wky12-22 cell monolayers at 4 C, two-site nonlinear regression; low affinity site
# [6] = biological target: Zven1 receptor on Wky12-22 cells (rat); test: cell-based or functional assay
# [7] = biological target: GPCR73a receptor (Homo sapiens (Human)) (UniProt Q8TCW9); test: cell-based or functional assay
# [8] = biological target: Zven1 receptor on Wky12-22 cells (rat); test: saturation binding of I125-radiolabeled Zven1 to Wky12-22 cell monolayers at 4 C, two-site nonlinear regression; high affinity site
# [9] = biological target: GPCR73b receptor (Homo sapiens (Human)) (UniProt Q8NFJ6); test: cell-based or functional assay
# [10] = biological target: GPCR73b receptor (Homo sapiens (Human)) (UniProt Q8NFJ6); test: cell-based or functional assay; remark: listed apart in the source
# [11] = biological target: GPCR73a receptor (Homo sapiens (Human)) (UniProt Q8TCW9); test: cell-based or functional assay; remark: listed apart in the source
# Chain of GPCR73a receptor (Homo sapiens (Human)) (Q8TCW9 whole entry): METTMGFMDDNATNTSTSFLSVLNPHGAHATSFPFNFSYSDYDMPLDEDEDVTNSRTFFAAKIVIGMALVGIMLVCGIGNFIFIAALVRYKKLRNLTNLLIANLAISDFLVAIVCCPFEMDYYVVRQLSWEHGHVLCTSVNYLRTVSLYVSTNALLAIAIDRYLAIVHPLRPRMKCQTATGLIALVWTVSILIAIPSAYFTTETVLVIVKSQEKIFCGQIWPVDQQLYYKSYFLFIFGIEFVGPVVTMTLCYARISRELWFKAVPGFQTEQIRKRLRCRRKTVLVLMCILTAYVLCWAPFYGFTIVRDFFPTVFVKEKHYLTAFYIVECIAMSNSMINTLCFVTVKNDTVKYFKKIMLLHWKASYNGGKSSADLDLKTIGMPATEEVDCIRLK
# T2 sequence (Q8TCW9 whole entry): as above
# T1 sequence (Q8NFJ6 whole entry): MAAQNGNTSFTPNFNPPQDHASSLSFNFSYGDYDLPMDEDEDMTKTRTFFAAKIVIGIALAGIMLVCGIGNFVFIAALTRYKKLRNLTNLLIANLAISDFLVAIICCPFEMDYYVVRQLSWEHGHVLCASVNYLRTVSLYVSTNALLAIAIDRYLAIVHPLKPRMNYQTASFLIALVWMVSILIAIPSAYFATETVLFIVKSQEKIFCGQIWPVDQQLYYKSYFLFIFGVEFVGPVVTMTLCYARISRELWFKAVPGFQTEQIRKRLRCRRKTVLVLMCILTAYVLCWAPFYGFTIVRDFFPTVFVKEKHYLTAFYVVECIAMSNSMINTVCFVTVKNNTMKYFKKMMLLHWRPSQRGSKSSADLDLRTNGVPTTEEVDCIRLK
# Chain of GPCR73b receptor (Homo sapiens (Human)) (Q8NFJ6 whole entry): as above
binder,measurement,setting,value
B1,SRE luciferase fold-induction at 1 ng/ml,GPCR73b receptor [1],0.7 fold-induction
same,SRE luciferase fold-induction at 3.2 ng/ml,GPCR73b receptor [1],1.3 fold-induction
same,SRE luciferase fold-induction at 10 ng/ml,GPCR73b receptor [1],1.9 fold-induction
same,SRE luciferase fold-induction at 32 ng/ml,GPCR73b receptor [1],3 fold-induction
same,SRE luciferase fold-induction at 100 ng/ml,GPCR73b receptor [1],4.7 fold-induction
same,SRE luciferase fold-induction at 320 ng/ml,GPCR73b receptor [1],6.3 fold-induction
same,SRE luciferase fold-induction at 1000 ng/ml,GPCR73b receptor [1],7.1 fold-induction
same,SRE luciferase fold-induction at 1 ng/ml,GPCR73a receptor [2],4.1 fold-induction
same,SRE luciferase fold-induction at 3.2 ng/ml,GPCR73a receptor [2],7.6 fold-induction
same,SRE luciferase fold-induction at 10 ng/ml,GPCR73a receptor [2],10.2 fold-induction
same,SRE luciferase fold-induction at 32 ng/ml,GPCR73a receptor [2],14.1 fold-induction
same,SRE luciferase fold-induction at 100 ng/ml,GPCR73a receptor [2],17.6 fold-induction
same,SRE luciferase fold-induction at 320 ng/ml,GPCR73a receptor [2],22 fold-induction
same,SRE luciferase fold-induction at 1000 ng/ml,GPCR73a receptor [2],13.9 fold-induction
same,SRE luciferase fold-induction at 1 ng/ml,GPCR73a receptor [3],1.9 fold-induction
same,SRE luciferase fold-induction at 3.2 ng/ml,GPCR73a receptor [3],4 fold-induction
same,SRE luciferase fold-induction at 10 ng/ml,GPCR73a receptor [3],8.4 fold-induction
same,SRE luciferase fold-induction at 32 ng/ml,GPCR73a receptor [3],15 fold-induction
same,SRE luciferase fold-induction at 100 ng/ml,GPCR73a receptor [3],19 fold-induction
same,SRE luciferase fold-induction at 320 ng/ml,GPCR73a receptor [3],20.7 fold-induction
same,SRE luciferase fold-induction at 1000 ng/ml,GPCR73a receptor [3],17.8 fold-induction
same,SRE luciferase fold-induction at 1 ng/ml,GPCR73b receptor [4],1 fold-induction
same,SRE luciferase fold-induction at 3.2 ng/ml,GPCR73b receptor [4],1.2 fold-induction
same,SRE luciferase fold-induction at 10 ng/ml,GPCR73b receptor [4],1.7 fold-induction
same,SRE luciferase fold-induction at 32 ng/ml,GPCR73b receptor [4],2.6 fold-induction
same,SRE luciferase fold-induction at 100 ng/ml,GPCR73b receptor [4],4.4 fold-induction
same,SRE luciferase fold-induction at 320 ng/ml,GPCR73b receptor [4],5.2 fold-induction
same,SRE luciferase fold-induction at 1000 ng/ml,GPCR73b receptor [4],4.8 fold-induction
B2,Bmax (fmol bound/10^6 cells),[5],1020
same,Kd,[5],31 nM
same,"ERK-Map kinase activity in Wky12-22 cells, EC50",[6],0.5 nM
same,SRE luciferase fold-induction at 1 ng/ml (fold-induction),[7],2.5
same,SRE luciferase fold-induction at 3.2 ng/ml (fold-induction),[7],7.1
same,SRE luciferase fold-induction at 10 ng/ml (fold-induction),[7],13.1
same,SRE luciferase fold-induction at 32 ng/ml (fold-induction),[7],18.7
same,SRE luciferase fold-induction at 100 ng/ml (fold-induction),[7],20.5
same,Bmax (fmol bound/10^6 cells),[8],350
same,Kd,[8],1.5 nM
B3,SRE luciferase fold-induction at 1 ng/ml (fold-induction),[7],1.8
same,SRE luciferase fold-induction at 3.2 ng/ml (fold-induction),[7],3.7
same,SRE luciferase fold-induction at 10 ng/ml (fold-induction),[7],10
same,SRE luciferase fold-induction at 32 ng/ml (fold-induction),[7],14.8
same,SRE luciferase fold-induction at 100 ng/ml (fold-induction),[7],18.6
B4,SRE luciferase fold-induction at 3.2 ng/ml (fold-induction),[9],1.4
same,SRE luciferase fold-induction at 32 ng/ml (fold-induction),[9],2.7
same,SRE luciferase fold-induction at 100 ng/ml (fold-induction),[9],4.1
same,SRE luciferase fold-induction at 320 ng/ml (fold-induction),[9],5.8
same,SRE luciferase fold-induction at 1000 ng/ml (fold-induction),[9],6.1
same,SRE luciferase fold-induction at 1 ng/ml (fold-induction),[7],1.2
same,SRE luciferase fold-induction at 3.2 ng/ml (fold-induction),[7],1.6
same,SRE luciferase fold-induction at 10 ng/ml (fold-induction),[7],2.5
same,SRE luciferase fold-induction at 32 ng/ml (fold-induction),[7],5.8
same,SRE luciferase fold-induction at 100 ng/ml (fold-induction),[7],11.4
same,SRE luciferase fold-induction at 320 ng/ml (fold-induction),[7],24.4
same,SRE luciferase fold-induction at 1000 ng/ml (fold-induction),[7],20
same,SRE luciferase fold-induction at 1 ng/ml (fold-induction),[10],1.1
same,SRE luciferase fold-induction at 3.2 ng/ml (fold-induction),[10],1.3
same,SRE luciferase fold-induction at 10 ng/ml (fold-induction),[10],1.8
same,SRE luciferase fold-induction at 32 ng/ml (fold-induction),[10],2.8
same,SRE luciferase fold-induction at 100 ng/ml (fold-induction),[10],5.6
same,SRE luciferase fold-induction at 320 ng/ml (fold-induction),[10],8.3
same,SRE luciferase fold-induction at 1000 ng/ml (fold-induction),[10],8.4
same,SRE luciferase fold-induction at 1 ng/ml (fold-induction),[11],0.95
same,SRE luciferase fold-induction at 3.2 ng/ml (fold-induction),[11],1.3
same,SRE luciferase fold-induction at 10 ng/ml (fold-induction),[11],2.6
same,SRE luciferase fold-induction at 32 ng/ml (fold-induction),[11],7.2
same,SRE luciferase fold-induction at 320 ng/ml (fold-induction),[11],20.5
same,SRE luciferase fold-induction at 1000 ng/ml (fold-induction),[11],15
